This is an account of results in patent US20230265201A1 (published 2023).

Assay [1] addresses T1, recombinant human CD70 (Flag-TNC-CD70) (human, UniProt P32970 39-193).
T1 construct: extracellular domain; also called recombinant CD70; human Flag-TNC-CD70; not shown: Flag tag and TNC trimerisation domain
T1 sequence (looked up): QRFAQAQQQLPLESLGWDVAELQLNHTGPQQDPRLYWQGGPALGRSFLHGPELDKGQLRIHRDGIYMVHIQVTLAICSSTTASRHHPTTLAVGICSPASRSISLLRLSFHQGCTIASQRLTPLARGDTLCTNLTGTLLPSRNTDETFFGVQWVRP
Briefly: CD27-CD70 inhibition ELISA, human Flag-TNC-CD70. (In an ELISA, binding on a coated surface is turned into a signal by an enzyme label.)

The target in assay [2] is T1, recombinant human CD70 (Flag-TNC-CD70). The experiment in a line: blocking ELISA of Example 19: CD27 Fc chimera on anti-Flag-captured Flag-TNC-CD70.
Assay [3] concerns the target T2, rhesus recombinant CD70 (FLAG-TNC-rhesus CD70) (rhesus macaque (Macaca mulatta), UniProt F7GPA5 174-316).
T2 construct: also called rhesus Flag-TNC-CD70; Rhesus monkey; not shown: Flag tag and TNC trimerisation domain
T2 sequence: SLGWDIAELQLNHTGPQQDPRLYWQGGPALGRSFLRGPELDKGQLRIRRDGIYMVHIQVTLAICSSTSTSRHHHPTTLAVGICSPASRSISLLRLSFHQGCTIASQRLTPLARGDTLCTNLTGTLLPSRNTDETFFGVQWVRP
Briefly: Biacore, Fab over immobilised rhesus CD70. (In SPR one partner is held on a chip, and binding of the other changes the refractive index at the surface.)

For assay [4], the target named is T3, human CD70 on the surface of cells (human, UniProt P32970 1-193).
T3 sequence (looked up): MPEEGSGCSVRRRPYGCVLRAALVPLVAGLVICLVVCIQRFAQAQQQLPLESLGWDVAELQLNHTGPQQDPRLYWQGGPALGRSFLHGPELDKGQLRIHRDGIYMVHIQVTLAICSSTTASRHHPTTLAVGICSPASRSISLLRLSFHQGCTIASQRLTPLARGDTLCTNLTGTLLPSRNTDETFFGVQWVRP
Briefly: cell-based or functional assay.

Assay [5] deals with T1, recombinant human CD70 (Flag-TNC-CD70). The experiment in a line: inhibition ELISA: CD27-Fc binding to anti-Flag-captured Flag-TNC-CD70. Here is the method: From selected phage transfected into TG1, individual colonies were picked randomly for growth in 96 well plates. After IPTG induction according to standard protocols periplasmic fractions (peris) containing Fabs were prepared. […] In this assay, Flag-TNC-CD70 is captured by an anti-Flag mAb and binding of CD27-Fc is detected via a biotinylated anti-CD27 mAb and strep-HRP in the absence or presence of CD70 Fabs (FIGS. 2 and 3) or CD70 mAbs (FIG. 4). In FIG. 2B it can be seen that 27B3, which has an identical VH as 9D1, but contains a somewhat different light chain, seems to block binding of CD27 to CD70 more efficiently, which was in line with the better off rate of this Fab as measured on Biacore (data not shown). Table 3 indicates the blocking potency (expressed as IC50) for the various llama-human chimeric mAbs tested in the CD70 inhibition ELISA. […] FIG. 3 is a composite of an experiment testing llama CD70 Fabs for blocking activity (in the inhibition ELISA, see white bars) and for CD70 binding (binding ELISA, black bars). For the binding ELISA, Flag-TNC-CD70 is captured by an anti-Flag mAb and binding of the Fabs is detected using an anti-myc-HRP mAb, which recognizes the MYC tag fused to the C-terminus of the Fd fragment. […]

The IC50 is the concentration at which inhibition is half-maximal. With MDX1411 mAb (antibody), the figures for the IC50 in assay [1] and in assay [2] were 0.044 µg/mL and 5.5 µg/mL, respectively.

B1: 9E1 Fab (Fab, V domains shown)
VH: EVQLQESGGGVVQPGGSLRLSCAASGFTFDDYAMSWVRQAPGKGLEWVSSIYMYDSSTYYADSVKGRFTISTDNAKNTVYLQMNSLKSEDTAVYYCAKDINRSYGSSWSHFGPIFSSWGQGTQVTVSS
VL: QAVVTQEPSLSVSPGGTVTLTCGLTSGSVTSSNYPDWYQQTPGQAPRLLIYNTNSRHSGVPSRFSGSISGNKAALTITGAQPEDEADYYCNLYMGSGGSKVFGGGTKLTVLG
notes: Llama-derived Fab from phage display; MYC tag at C-terminus of Fd
Usually koff stands for a measure of how fast the partners let go of each other. For B1, the koff in assay [3] came out at 0.0002 s⁻¹.

B2: 1C2 Fab (Fab, V domains shown)
VH: ELQVVESGGGLVQPGGSLRLSCAASGFTLSNYWMHWVRQAPRKGLEWVSTISTDNSRTYYADSVKGRFTISRDHAKNTLILQMNSLKSEDTAVYYCIRGSDYEHWGQGTQVTVSS
VL: QTVVTQEPSLSVSPGGTVTLTCGLSSGSVTTTNYPGWFQQTPGQAPRTLIYSTSSRHSGVPSRFSGSISGNKAALTITGAQPEDEADYYCALEEIGSYTYMFGGGTHLTVLG
notes: as for B1
With B2, the koff in assay [3] stood at 0.00032 s⁻¹.

B3: 57B6 Fab (Fab, V domains shown)
VH: QLQLVESGGGLVQPGGSLRLSCAASGFSFSHYAMSWVRQAPGKGLEWVSGDNTYDGGTRYQDSVKGRFTISRDNGKNTLYLQMNSLKPEDTAVYYCAKDTGRGIMGEYGMDYWGKGTLVTVSS
VL: QTVVTQEPSLSVSPGGTVTLTCGLKSGSVTSSNYPAWYQQTPGQAPRLLIYNTNSRHSGVPSRFSGSISGNKAALTITGAQPEDEADYYCALYMGSGSANAMFGGGTHLTVLG
notes: as for B1
Take B3: the koff in assay [3] stood at 4e-05 s⁻¹.

B4: 53A2 mAb (human IgG1, HEK293) (antibody, V domains shown)
VH: EVQLVESGGGLVQPGGSLRLSCAASGFTFSVYYMNWVRQAPGKGLEWVSDINNEGGTTYYADSVKGRFTISRDNSKNSLYLQMNSLRAEDTAVYYCARDAGYSNHVPIFDSWGQGTLVTVSS
VL: QAVVTQEPSFSVSPGGTVTLTCGLKSGSVTSDNFPTWYQQTPGQAPRLLIYNTNTRHSGVPDRFSGSILGNKAALTITGAQADDEAEYFCALFISNPSVEFGGGTQLTVLG
With B4, the “Raji co-culture assay IC50 relative to 27B3” value in assay [4] is 0.8 fold relative to 27B3.

B5: 53H1 mAb (human IgG1, HEK293) (antibody, V domains shown)
VH: EVQLVESGGGLVQPGGSLRLSCAASGFTFSVYYMNWVRQAPGKGLEWVSDINNEGGTTYYADSVKGRFTISRDNSKNSLYLQMNSLRAEDTAVYYCARDAGYSNHVPIFDSWGQGTLVTVSS
VL: QTVVTQEPSFSVSPGGTVTLTCGLKSGSVTSDNFPTWYQQTPGQAPRLLIYNTNTRHSGVPDRFSGSILGNKAALTITGAQADDEAEYFCALFISNPSVEFGGGTQLTVLG
For the molecule B5, the “Raji co-culture assay IC50 relative to 27B3” value in assay [4] is 1.6 fold relative to 27B3.

B6: 41D12 mAb (human IgG1, HEK293) (antibody, V domains shown)
VH: EVQLVESGGGLVQPGGSLRLSCAASGFTFSVYYMNWVRQAPGKGLEWVSDINNEGGTTYYADSVKGRFTISRDNSKNSLYLQMNSLRAEDTAVYYCARDAGYSNHVPIFDSWGQGTLVTVSS
VL: QAVVTQEPSLTVSPGGTVTLTCGLKSGSVTSDNFPTWYQQTPGQAPRLLIYNTNTRHSGVPDRFSGSILGNKAALTITGAQADDEAEYFCALFISNPSVEFGGGTQLTVLG
In the case of B6, the “Raji co-culture assay IC50 relative to 27B3” value in assay [4] is 1.2 fold relative to 27B3.

B7: 9D1 chimeric llama-human mAb (antibody, V domains shown)
VH: EVQLVESGGGLVQPGGSLRLSCAASGFTFSVYYMNWVRQAPGKGLEWVSDINNEGGTTYYADSVKGRFTISRDNAKNTLTLQMNSLKPEDTALYYCVRDAGYSNHVPIFDSWGQGTQVIVAS
VL: QAVVTQEPSLSVSPGGTVTLTCGLSSGSVTSSHYPGWYQQTPGQAPRLLIFNTNSRHSGVPSRFSGSISGNKAALTITGAQPEDEADYYCALLNIDDGSTMFGGGTHLTVLG
notes: also called mAb 9D1
Regarding B7, the “fold less potent than 27B3 mAb” value in assay [5] came to 3 fold.

B8: 35G2 mAb (human IgG1, HEK293) (antibody, V domains shown)
VH: EVQLVESGGGLVQPGGSLRLSCAASGFTFSVYYMNWVRQAPGKGLEWVSDINNEGGTTYYADSVKGRFTISRDNAKNTLYLQMNSLKPEDTAVYYCARDAGYSNHVPIFDSWGQGTLVTVSS
VL: QTVVTQEPSFSVSPGGTVTLTCGLKSGSVTSTNFPTWYQQTPGQAPRLLIYNTNSRHSGVPDRFSGSILGNKAALTITGAQADDEADYFCALFISNPSVEFGGGTQLTVLG
Regarding B8, the “Raji co-culture assay IC50 relative to 27B3” value in assay [4] is 1.4 fold relative to 27B3.

B9: 40F1 mAb (human IgG1, HEK293) (antibody, V domains shown)
VH: EVQLVESGGGLVQPGGSLRLSCAASGFTFSVYYMNWVRQAPGKGLEWVSDINNEGGATYYADSVKGRFTISRDNSKNSLYLQMNSLRAEDTAVYYCARDAGYSNHVPIFDSWGQGTQVTVSS
VL: QAVVTQEPSFSVSPGGTVTLTCGLKSGSVTSDNFPTWYQQTPGQAPRLLIYNTNTRHSGVPDRFSGSILGNKAALTITGAQADDEAEYFCALFISNPSVEFGGGTQLTVLG
On to B9, for which the “Raji co-culture assay IC50 relative to 27B3” value in assay [4] is 1.8 fold relative to 27B3.

B10: 9D1 Fab (Fab, V domains shown)
VH: EVQLVESGGGLVQPGGSLRLSCAASGFTFSVYYMNWVRQAPGKGLEWVSDINNEGGTTYYADSVKGRFTISRDNAKNTLTLQMNSLKPEDTALYYCVRDAGYSNHVPIFDSWGQGTQVIVAS
VL: QAVVTQEPSLSVSPGGTVTLTCGLSSGSVTSSHYPGWYQQTPGQAPRLLIFNTNSRHSGVPSRFSGSISGNKAALTITGAQPEDEADYYCALLNIDDGSTMFGGGTHLTVLG
notes: as for B1
Turning to B10, the koff in assay [3] was found to be 0.0002 s⁻¹.

B11: 5F4 Fab (Fab, V domains shown)
VH: EVQVQESGGGLVHPGGSLKLSCAASGFTFDTYAMSWVRQAPGKGLEWVSAISWSGGETFYAESMKGRFTISRNNAKNTLYLQMNSLKSEDTAVYYCARGMGLAEGLTDWGQGTQVTVSS
VL: QAVVTHPPSLSASPGSSVRLTCTLISGDNIGGYDISWYQQKTGSPPRYLLYYYSDSYKHQSSGVPSRFSGSKDASANAGLLLISGLQSEDEADYYCSAYKSGSYKAPVFGGGTHLTVLG
notes: as for B1
Consider B11, for which the koff in assay [3] stood at 0.0005 s⁻¹.

B12: 4D2 Fab (Fab, V domains shown)
VH: QVQLQESGPGLVKPSQTLSLACTVSGGSITTSYYYWSWIRQPPGKGLEWMGAIGSRGSTYYSPSLKTRTSISRDTSKNQFTLQLSSVTPEDTAVYYCARVTGEITYNSGSYYYTLNLFDYWGQGTQVTVSS
VL: QSVLTQPPSLSASPGSSVRLTCTLSSGNSVGNYDISWYQQKAGSPPRYLLYYYSDSYKNQGSGVPSRFSGSKDPSANAGLLLISGLQAEDEADYYCSVSNSGTYKPVFGGGSKLTVLG
notes: as for B1
In the case of B12, the off-rate (koff) in assay [3] worked out at 0.00029 s⁻¹.

B13: 9G2 Fab (Fab, V domains shown)
VH: QVQLVESGGGLMQPGGSLRLSCAASGFTFSSSAMSWVRQAPGKGLEWVSSIYSDSSYTYYADSVKSRFTISTDNAKNTLYLQMNSLKPDDTAVYYCAGSSDYEGSFASWGQGTQVTVSS
VL: QSVVTQPPSLSASPGSSVRLTCTLSSGNSVGNYDISWYQQKAGSPPRYLLYYYSDSVKHQGSGVPSRFSGSSDASANAGLLLISGLQPEDEADYYCSAYKSGSHVFGGGTKLTVLG
notes: as for B1
For the molecule B13, the koff in assay [3] was found to be 0.00018 s⁻¹.

B14: 9B2 Fab (Fab, V domains shown)
VH: QLQVVESGGGLMQPGGSLRLSCAASGFTFSGSAMSWVRQAPGKGLEWVSSIYSHSMYTYYADSVKSRFTISTDNAKNTLYLQMNSLKPDDTAVYYCAASSDYEGLFVSWGQGTQVTVSS
VL: QAVLTQPPSLSASPGSSVRLTCTLNSANSVGSYDISWYQQKAGSPPRYLLYYYSDSLSHQGSGVPSRFSGSTDASANAGLLLISGLQPEDEADYYCSAYNRGSHVFGGGTKLTVLG
notes: as for B1
As for B14, in assay [3], the koff was 0.00061 s⁻¹.
